Where a chain is given by its changes, count along the chain named.

T1: AAV8 (adeno-associated virus 8, Assembled 60-mer capsid of VP1/VP2/VP3 (nested products of one cap gene), amine-coupled to a CM5 chip; the letters give one VP1 subunit only.)
T1 construct: also called adeno-associated virus serotype 8
T1 chain: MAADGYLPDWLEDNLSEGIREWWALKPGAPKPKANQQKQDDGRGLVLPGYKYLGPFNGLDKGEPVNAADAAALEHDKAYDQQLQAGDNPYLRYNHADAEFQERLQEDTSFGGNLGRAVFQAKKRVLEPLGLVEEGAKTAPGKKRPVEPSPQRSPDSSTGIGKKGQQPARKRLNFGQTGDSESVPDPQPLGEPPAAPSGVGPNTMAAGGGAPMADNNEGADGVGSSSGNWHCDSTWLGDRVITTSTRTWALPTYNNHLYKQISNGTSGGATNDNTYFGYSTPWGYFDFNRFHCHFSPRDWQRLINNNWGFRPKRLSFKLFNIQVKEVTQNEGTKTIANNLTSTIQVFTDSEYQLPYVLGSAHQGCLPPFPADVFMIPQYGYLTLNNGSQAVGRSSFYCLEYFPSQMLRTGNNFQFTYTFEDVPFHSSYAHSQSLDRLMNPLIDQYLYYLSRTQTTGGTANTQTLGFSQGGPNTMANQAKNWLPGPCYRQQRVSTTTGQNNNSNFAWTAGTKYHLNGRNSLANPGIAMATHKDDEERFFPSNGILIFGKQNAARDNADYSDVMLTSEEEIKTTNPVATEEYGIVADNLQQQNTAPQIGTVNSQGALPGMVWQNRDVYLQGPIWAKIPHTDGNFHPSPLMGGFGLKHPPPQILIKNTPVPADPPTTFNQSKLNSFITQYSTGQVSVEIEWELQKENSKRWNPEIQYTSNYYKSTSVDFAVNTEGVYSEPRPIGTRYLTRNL

B1: A4-D8 (bispecific antibody)
chain: VQLQESGGGLVQPGGSLRLSCAASGSRFSLNTMGWYRQAPGKQRELVATVTRGGSTNYADSVKGRFTISRDNAKNTVYLQMNSLRPEDTAVYYCHVDELRESGWTTSNLWGQGTQVTVSSGGGGSGGGGSGGGGSVQLQESGGGLVQPGGSLRLSCAASGSRFSLNTMGWYRQAPGKQRELVATVTRGGSTNYADFVKGRFTISRDNAKNTVYLQMNSLRPEDTAVYYCHVDELRESGWTTSNLWGQGTQVTVSSGGGGSGGGGSGGGGSVQLQESGGGLVHSGGSLRLSCAASGSMFSLNTMGWYRQAPGKQRELVATITRGGGTSYADSVKGRFTISRDNAKNTVYLQMNSLRPEDTAVYYCHVDELRQSSWTTSNLWGQGTQVTVSSGGGGSGGGGSGGGGSVQLQESGGGLVQPGGSLRLSCAASGSRFSLNTMGWYRQAPGKQRELVATVTRGGSTNYADFVKGRFTISRDNAKNTVYLQMNSLRPEDTAVYYCHVDELRESGWTTSNLWGQGTQVTVSS
B2: A4-D9 (bispecific antibody)
chain: VQLQESGGGLVHSGGSLRLSCAASGSMFSLNTMGWYRQAPGKQRELVATITRGGGTSYADSVKGRFTISRDNAKNTVYLQMNSLRPEDTAVYYCHVDELRQSSWTTSNLWGQGTQVTVSSGGGGSGGGGSGGGGSVQLQESGGGLVQPGGSLRLSCAASGSRFSLNTMGWYRQAPGKQRELVATVTRGGSTNYADFVKGRFTISRDNAKNTVYLQMNSLRPEDTAVYYCHVDELRESGWTTSNLWGQGTQVTVSSGGGGSGGGGSGGGGSVQLQESGGGLVQPGGSLRLSCAASGSRFSLNTMGWYRQAPGKQRELVATVTRGGSTNYADFVKGRFTISRDNAKNTVYLQMNSLRPEDTAVYYCHVDELRESGWTTSNLWGQGTQVTVSSGGGGSGGGGSGGGGSVQLQESGGGLVQTGGSLRLSCAASGRAFSLNTMGWYRQAPGKWRELVATVTRGGSTNYAGSVKGRFTISRDNAKNTVYLQMNNLRPEDTAVYYCHVDEVRESSWTTSNLWGQGTQVTVSS
B3: A4-D6 (bispecific antibody)
chain: VQLQESGGGLVQTGGSLRLSCAASGRAFSLNTMGWYRQAPGKWRELVATVTRGGSTNYAGSVKGRFTISRDNAKNTVYLQMNNLRPEDTAVYYCHVDEVRESSWTTSNLWGQGTQVTVSSGGGGSGGGGSGGGGSVQLQESGGGLVQTGGSLRLSCAASGRAFSLNTMGWYRQAPGKWRELVATVTRGGSTNYAGSVKGRFTISRDNAKNTVYLQMNNLRPEDTAVYYCHVDEVRESSWTTSNLWGQGTQVTVSSGGGGSGGGGSGGGGSVQLQESGGGLVQPGGSLRLSCAASGSIFTINSMGWYRQAPGKWRELVATVTRGGNTNYANSVKGRFTISRDNAKNTVYLQMNTLRPEDTAVYYCHLDEVRDSSWTTSNLWGQGTQVTVSSGGGGSGGGGSGGGGSVQLQESGGGLVQPGGSLRLSCAASGSIFSINSMGWYRQAPGKWRELVATVTRGGSTNYANSVKGRFTISRDNAKNTVYLQMNTLRPEDTAVYYCHLDEVRDSSWTTSNLWGQGTQVTVSS
B4: A4-D11 (other)
chain: VQLQESGGGLVQPGGSLRLSCAASGRGFSINTMGWYRQAPGKQRELVAAVTRGGTTNYADSVKGRFTISRDNAKNTVYLQMNSLRPEDTAVYYCHVDEVRQSSWTTSNLWGQGTQVTVSSGGGGSGGGGSGGGGSVQLQESGGGLVQPGGSLRLSCAASGSIFSINTMGWYRQAPGKQRELVAAVTRGGSTNYADSVKGRFTISRDNAKNTVYLQMNSLRPEDTAVYYCHVDEVRQSSWTTSNLWGQGTQVTVSSGGGGSGGGGSGGGGSVQLQESGGGLVQPGGSLRLSCAASGSIFIINTMGWYRRAPGKQRELVAAVTRGGSTNYADSVKGRFTISRDNAKNTVYLQMNSLRPEDTAVYYCHVDEVRQSSWTTSNLWGQGTQVTVSSGGGGSGGGGSGGGGSVQLQESGGGLVQPGGSLRLSCAASGSSFVINTMGWYRQAPGKQRELVAAVTRGGSTNYADSVKGRFTISRDNAKNTVYLQMNSLRPEDTAVYYCHVDEVRQSSWTTSNLWGQGTQVTVSS
B5: A4-C1 (VHH)
chain: VQLQESGGGLVQPGGSLRLSCAASGSGFSINTMGWYRQAPGKQRELVATVTRDGSTNYADFVKGRFTISRDNAKNTVYLQMNSLRPEDTAVYYCHLDEVRESSWTTSNLWGQGTQVTVSSGGGGSGGGGSGGGGSVQLQESGGGLVQPGGSLRLSCAASGSGFSINTMGWYRQAPGKQRELVATVTRDGSTNYADFVKGRFTISRDNAKNTVYLQMNSLRPEDTAVYYCHLDEVRESSWTTSNLWGQGTQVTVSSGGGGSGGGGSGGGGSVQLQESGGGLVQPGGSLRLSCAASGSGFSINTMGWYRQAPGKQRELVATVTRDGSTNYADFVKGRFTISRDNAKNTVYLQMNSLRPEDTAVYYCHLDEVRESSWTTSNLWGQGTQVTVSS
B6: A4-B2 (bispecific antibody)
chain: VQLQESGGGLVQAGGSLRLSCAASGSRFSINTMGWYRQAPGKQREFVATVTRGGNTNYAESVKGRFTISRDNAKNTVYLQMNSLRPEDTAVYYCHVDEVRDSSWTTSNIWGQGTQVTVSSGGGGSGGGGSGGGGSVQLQESGGGLVQAGGSLRLSCAASGSTFSINTMGWYRQAPGKQRELVATITRGGNTNYADSVKGRFTISRDNAKNTVYLQMNSLRPEDTAVYYCHVDEVRQSSWTTSNLWGQGTQVTVSS
B7: A4-D7 (bispecific antibody)
chain: VQLQESGGGLVQTGGSLRLSCAASGRAFSLNTMGWYRQAPGKWRELVATVTRGGSTNYAGSVKGRFTISRDNAKNTVYLQMNNLRPEDTAVYYCHVDEVRESSWTTSNLWGQGTQVTVSSGGGGSGGGGSGGGGSVQLQESGGGLVQPGGSLRLSCAASGSIFTINSMGWYRQAPGKWRELVATVTRGGNTNYANSVKGRFTISRDNAKNTVYLQMNTLRPEDTAVYYCHLDEVRDSSWTTSNLWGQGTQVTVSSGGGGSGGGGSGGGGSVQLQESGGGLVQPGGSLRLSCAASGSIFSINSMGWYRQAPGKWRELVATVTRGGSTNYANSVKGRFTISRDNAKNTVYLQMNTLRPEDTAVYYCHLDEVRDSSWTTSNLWGQGTQVTVSSGGGGSGGGGSGGGGSVQLQESGGGLVQTGGSLRLSCAASGRAFSLNTMGWYRQAPGKWRELVATVTRGGSTNYAGSVKGRFTISRDNAKNTVYLQMNNLRPEDTAVYYCHVDEVRESSWTTSNLWGQGTQVTVSS
B8: A4-D1 (VHH)
chain: VQLQESGGGLAQAGGSLRLSCAASGRGFSINTMGWYRQAPGKQRELVAAVTRGGTTNYADSVKGRFTISRDNAKNTVYLQMNSLRPEDTAVYYCHVDEVRQSSWTTSNLWGQGTQVTVSSGGGGSGGGGSGGGGSVQLQESGGGLAQAGGSLRLSCAASGRGFSINTMGWYRQAPGKQRELVAAVTRGGTTNYADSVKGRFTISRDNAKNTVYLQMNSLRPEDTAVYYCHVDEVRQSSWTTSNLWGQGTQVTVSSGGGGSGGGGSGGGGSVQLQESGGGLAQAGGSLRLSCAASGRGFSINTMGWYRQAPGKQRELVAAVTRGGTTNYADSVKGRFTISRDNAKNTVYLQMNSLRPEDTAVYYCHVDEVRQSSWTTSNLWGQGTQVTVSSGGGGSGGGGSGGGGSVQLQESGGGLAQAGGSLRLSCAASGRGFSINTMGWYRQAPGKQRELVAAVTRGGTTNYADSVKGRFTISRDNAKNTVYLQMNSLRPEDTAVYYCHVDEVRQSSWTTSNLWGQGTQVTVSS
B9: A4-D4 (VHH)
chain: B8 chain with A146V, A148P
B10: A4-D3 (VHH)
chain: B8 chain with A416V, A418P

The target in the first experiment is T1, AAV8. In words: SPR, AAV amine-coupled to CM5 chip.
Usually Kd stands for the constant that tells how readily two partners part at equilibrium. High values mean lower affinity, low ones higher affinity. In general, koff refers to a measure of how fast the partners let go of each other. Low values mean slow dissociation, high ones fast dissociation. As usually defined, the kon is the second-order rate constant of association. Lower therefore signals slower complex formation. With B1, the affinity, expressed as Kd, was 0.228 nM; the koff was determined as 1.1e-05 s⁻¹; the kon is 48200 M⁻¹ s⁻¹.

As for B2, binding was put at a Kd of 0.318 nM, the koff was found to be 9.9e-06 s⁻¹ and the kon amounted to 31100 M⁻¹ s⁻¹.

B3 came in with a dissociation constant (Kd) of 1.02 nM, a koff of 1.63e-05 s⁻¹ and a kon of 16000 M⁻¹ s⁻¹.

Turning to B4, the Kd was 0.319 nM, the koff was found to be 1.5e-05 s⁻¹ and the association rate constant (kon) was 47000 M⁻¹ s⁻¹.

As for B5, binding was put at a Kd of 9.2 nM, the koff is 0.00164 s⁻¹ and the kon came out at 178000 M⁻¹ s⁻¹.

B6 registered a Kd of 1.02 nM, a koff of 0.00014 s⁻¹ and a kon of 138000 M⁻¹ s⁻¹.

In turn, B7 yielded a Kd of 1.41 nM, a koff of 1.79e-05 s⁻¹ and a kon of 12700 M⁻¹ s⁻¹.

Another experiment has as its target T2, AAV9 (adeno-associated virus 9, Assembled 60-mer capsid of VP1/VP2/VP3 (nested products of one cap gene), amine-coupled to a CM5 chip; the letters give one VP1 subunit only.).
T2 construct: also called adeno-associated virus serotype 9
In words: SPR, AAV amine-coupled to CM5 chip. On the technique in general: Surface plasmon resonance follows binding to a sensor surface in real time, without labels.
For B5, the dissociation constant (Kd) is no more than 1.03 nM, the koff is no more than 1e-05 s⁻¹ and the kon came out at 9690 M⁻¹ s⁻¹.

For the molecule B6, binding was characterised by a dissociation constant (Kd) of 8.35 nM, the koff was 0.0008 s⁻¹ and the association rate constant (kon) is 95800 M⁻¹ s⁻¹.

For the next experiment, the target named is T3, AAV5 (adeno-associated virus 5, Assembled 60-mer capsid of VP1/VP2/VP3 (nested products of one cap gene), amine-coupled to a CM5 chip; the letters give one VP1 subunit only.).
T3 construct: also called adeno-associated virus serotype 5
In words: SPR, AAV amine-coupled to CM5 chip.
With B5, the Kd is 13.2 nM, the koff is 0.00138 s⁻¹ and the kon worked out at 104000 M⁻¹ s⁻¹.

B8 had a Kd of 0.0576 nM, a koff of 2.2e-06 s⁻¹ and a kon of 38200 M⁻¹ s⁻¹.

The molecule B9 gave a Kd of 0.657 nM, an off-rate (koff) of 1.73e-05 s⁻¹ and a kon of 26300 M⁻¹ s⁻¹.

Take B10: binding was characterised by a dissociation constant (Kd) of 0.209 nM, the koff was 3.6e-06 s⁻¹ and the kon was 17300 M⁻¹ s⁻¹.

In turn, B6 gave a Kd of 7.38 nM, a koff of 0.00117 s⁻¹ and a kon of 159000 M⁻¹ s⁻¹.

(Values after patent US20260062463A1 (KANGYUAN BIOMEDICAL TECH DALIAN, published 2026).)
